In article PMC10813002, “Neurofilament Light Protein Rod Domain Exhibits Structural Heterogeneity” (Biomolecules, 2024):

Experiments:
[1] = biological target: the molecule itself; experiment: SEC + cross-linking; 250 uL of 2 mg/mL protein on Superose 6 Increase 10/300 GL in 5 mM HEPES pH 8.0, 0.5 mM EGTA, 2 mM DTT; samples from each peak cross-linked with 0.024% glutaraldehyde at 30 °C for 60 min, SDS-PAGE in 12.5% gel
[2] = biological target: the molecule itself; experiment: cross-linking; NFL1B at 1 and 2 mg/mL, 0.008% or 0.024% glutaraldehyde, SDS-PAGE

B1: NFL2 (neurofilament light chain protein, coil 2, Val249-Glu396) (domain or fragment, human, UniProt P07196 249-396, looked up)
chain: VTKPDLSAALKDIRAQYEKLAAKNMQNAEEWFKSRFTVLTESAAKNTDAVRAAKDEVSESRRLLKAKTLEIEACRGMNEALEKQLQELEDKQNADISAMQDTINKLENELRTTKSEMARYLKEYQDLLNVKMALDIEIAAYRKLLEGE
notes: neurofilament light chain protein (NFL), human, product of the NEFL gene, UniProt P07196, coil 2, residues Val249-Glu396; The monomer mass used for DSC is 16.9 kDa; also called NFL coil 2; source: E. coli C41, inclusion bodies solubilised in 8 M urea, purified (HisTrap HP), renatured by dialysis
stoichiometry N [1]: 2

B2: NFLROD (neurofilament light chain protein rod domain, coils 1A, 1B and 2, Ser80-Glu396) (domain or fragment, human, UniProt P07196 80-396, looked up)
chain: SNDLKSIRTQEKAQLQDLNDRFASFIERVHELEQQNKVLEAELLVLRQKHSEPSRFRALYEQEIRDLRLAAEDATNEKQALQGEREGLEETLRNLQARYEEEVLSREDAEGRLMEARKGADEAALARAELEKRIDSLMDEISFLKKVHEEEIAELQAQIQYAQISVEMDVTKPDLSAALKDIRAQYEKLAAKNMQNAEEWFKSRFTVLTESAAKNTDAVRAAKDEVSESRRLLKAKTLEIEACRGMNEALEKQLQELEDKQNADISAMQDTINKLENELRTTKSEMARYLKEYQDLLNVKMALDIEIAAYRKLLEGE
notes: neurofilament light chain protein (NFL), human, product of the NEFL gene, UniProt P07196, rod domain (coils 1A, 1B and 2), residues Ser80-Glu396; The monomer mass used for DSC is 36.6 kDa; also called NFL rod domain; full rod domain (1A+1B+2); source: E. coli C41, inclusion bodies solubilised in 8 M urea, purified (HisTrap HP), renatured by dialysis
stoichiometry N [1]: 4

B3: NFL_(1A+1B) (neurofilament light chain protein, coils 1A and 1B, Ser80-Ile243) (domain or fragment, human, UniProt P07196 80-243, looked up)
chain: SNDLKSIRTQEKAQLQDLNDRFASFIERVHELEQQNKVLEAELLVLRQKHSEPSRFRALYEQEIRDLRLAAEDATNEKQALQGEREGLEETLRNLQARYEEEVLSREDAEGRLMEARKGADEAALARAELEKRIDSLMDEISFLKKVHEEEIAELQAQIQYAQI
notes: neurofilament light chain protein (NFL), human, product of the NEFL gene, UniProt P07196, coils 1A and 1B, residues Ser80-Ile243; The monomer mass used for DSC is 19.2 kDa; also called coil 1; source: E. coli C41, purified from the fraction of soluble proteins (HisTrap HP, imidazole gradient)
stoichiometry N [1]: 2

B4: NFL1B (neurofilament light chain protein, coil 1B, Ser133-Ile243) (domain or fragment, human, UniProt P07196 133-243, looked up)
chain: SRFRALYEQEIRDLRLAAEDATNEKQALQGEREGLEETLRNLQARYEEEVLSREDAEGRLMEARKGADEAALARAELEKRIDSLMDEISFLKKVHEEEIAELQAQIQYAQI
notes: neurofilament light chain protein (NFL), human, product of the NEFL gene, UniProt P07196, coil 1B, residues Ser133-Ile243; Dimer at 1-2 mg/mL; larger oligomers also at 5 mg/mL; also called NFL coil 1B domain; source: E. coli C41, purified from the fraction of soluble proteins (HisTrap HP, imidazole gradient)
stoichiometry N [2]: 2

B5: NFL_(1B+2) (neurofilament light chain protein, coils 1B and 2, Ser133-Glu396) (domain or fragment, human, UniProt P07196 133-396, looked up)
chain: SRFRALYEQEIRDLRLAAEDATNEKQALQGEREGLEETLRNLQARYEEEVLSREDAEGRLMEARKGADEAALARAELEKRIDSLMDEISFLKKVHEEEIAELQAQIQYAQISVEMDVTKPDLSAALKDIRAQYEKLAAKNMQNAEEWFKSRFTVLTESAAKNTDAVRAAKDEVSESRRLLKAKTLEIEACRGMNEALEKQLQELEDKQNADISAMQDTINKLENELRTTKSEMARYLKEYQDLLNVKMALDIEIAAYRKLLEGE
notes: neurofilament light chain protein (NFL), human, product of the NEFL gene, UniProt P07196, coils 1B and 2, residues Ser133-Glu396; The monomer mass used for DSC is 30.4 kDa; source: E. coli C41, inclusion bodies solubilised in 8 M urea, purified (HisTrap HP), renatured by dialysis
stoichiometry N [1]: 4
